These results are taken from the supplement of paper PMC9112550, “Optimization of the antimicrobial peptide Bac7 by deep mutational scanning” (BMC Biology, 2022).

The data set concerns Escherichia coli TOP10. Kind of data set: shrunken log2 fold change of peptide-encoding DNA abundance (4.5 h post-induction vs induction); higher = less antimicrobial activity (less host growth inhibition). Particulars: time post-induction: 4.5 h; library: site-saturation at positions 5, 18, 19, 20.
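Note: peptides expressed intracellularly from a pBAD plasmid library in pooled LB shake-flask culture, induced with 0.3% L-arabinose, DNA abundance read by NGS, three biological replicates, DESeq2 with apeglm shrinkage.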

In the case of RRIRERPPRLPRPRPRPGSLPRP, the “shrunken log2 fold change” value is -0.431.
Under RRIRGRPPRLPRPRPRPHWLPRP stands 0.14; under RRIRWRPPRLPRPRPRPNCGPRP, 0.192.
Take RRIRSRPPRLPRPRPRPEEQPRP: the “shrunken log2 fold change” value turned out to be 0.64.
RRIRGRPPRLPRPRPRPGVYPRP: the “shrunken log2 fold change” value was found to be 0.0589.
With RRIRRRPPRLPRPRPRPHMRPRP, the “shrunken log2 fold change” value was found to be 0.29.
In the case of RRIRFRPPRLPRPRPRPPFGPRP, the “shrunken log2 fold change” value is -0.00994.
Under RRIRLRPPRLPRPRPRPCDFPRP stands 0.092; under RRIRYRPPRLPRPRPRPDMRPRP, -0.00508.
Turning to RRIRQRPPRLPRPRPRPWVHPRP, the “shrunken log2 fold change” value was -0.0494.
Under RRIRCRPPRLPRPRPRPRANPRP stands 0.255.
Under RRIRCRPPRLPRPRPRPHWCPRP stands -0.155; under RRIRKRPPRLPRPRPRPVPIPRP, 0.177.
Consider RRIRERPPRLPRPRPRPKFHPRP, for which the “shrunken log2 fold change” value is -0.554.
Under RRIRDRPPRLPRPRPRPEGTPRP stands -0.042.
Under RRIRKRPPRLPRPRPRPIFAPRP stands 0.454; under RRIRLRPPRLPRPRPRPTHMPRP, 0.0883.
Under RRIRCRPPRLPRPRPRPDQWPRP stands -0.197; under RRIRLRPPRLPRPRPRPPFTPRP, 0.11.
Take RRIRERPPRLPRPRPRPKCAPRP: the “shrunken log2 fold change” value was 0.0581.
For RRIRCRPPRLPRPRPRPLKQPRP, the “shrunken log2 fold change” value is -0.151.
Under RRIRARPPRLPRPRPRPSTIPRP stands -0.273; under RRIRCRPPRLPRPRPRPNELPRP, -0.171; under RRIRMRPPRLPRPRPRPLSHPRP, 0.177.
In the case of RRIRMRPPRLPRPRPRPKYMPRP it was 0.00659.
For the sequence RRIRERPPRLPRPRPRPMRDPRP, the “shrunken log2 fold change” value worked out at 0.365.
In the case of RRIRARPPRLPRPRPRPHYIPRP it was -0.296; in that of RRIRGRPPRLPRPRPRPNAHPRP, 0.754; in that of RRIRGRPPRLPRPRPRPQYSPRP, 0.0802.
In the case of RRIRWRPPRLPRPRPRPICKPRP, the “shrunken log2 fold change” value is -0.0506.
Regarding RRIRDRPPRLPRPRPRPPLFPRP, the “shrunken log2 fold change” value was 0.5.
For RRIRWRPPRLPRPRPRPSYFPRP, the “shrunken log2 fold change” value came to 1.15.
RRIRQRPPRLPRPRPRPFRCPRP: the “shrunken log2 fold change” value is -0.0452.
Under RRIRGRPPRLPRPRPRPSSTPRP stands 0.446; under RRIRYRPPRLPRPRPRPIVTPRP, -0.015; under RRIRIRPPRLPRPRPRPGDFPRP, -0.162.
Take RRIRFRPPRLPRPRPRPMTGPRP: the “shrunken log2 fold change” value is -0.0757.
In the case of RRIRPRPPRLPRPRPRPVPSPRP, the “shrunken log2 fold change” value worked out at 0.448.
Under RRIRVRPPRLPRPRPRPIITPRP stands -0.844.
Consider RRIRNRPPRLPRPRPRPVSMPRP, for which the “shrunken log2 fold change” value was -0.0312.
As for RRIRHRPPRLPRPRPRPMDMPRP, the “shrunken log2 fold change” value was 0.0881.
In the case of RRIRARPPRLPRPRPRPGFKPRP, the “shrunken log2 fold change” value is -0.02.
RRIRDRPPRLPRPRPRPTLQPRP: the “shrunken log2 fold change” value was determined as 0.981.
With RRIRMRPPRLPRPRPRPVWLPRP, the “shrunken log2 fold change” value is 3.04.
RRIRYRPPRLPRPRPRPMVPPRP: the “shrunken log2 fold change” value was -0.909.
Under RRIRCRPPRLPRPRPRPRTGPRP stands 0.148; under RRIRCRPPRLPRPRPRPYHYPRP, -0.364.
Under RRIRARPPRLPRPRPRPEVGPRP stands 1.42; under RRIRARPPRLPRPRPRPICNPRP, 0.176; under RRIRARPPRLPRPRPRPAGDPRP, 1.01.
